Experimental data reported in US6884866B2, “Bulk drying and the effects of inducing bubble nucleation” (Avant Immunotherapeutics, Inc., priority 2001, dated 2005).

Test: Urokinase activity after foam drying and storage
Assay type: physicochemical
Description: (7) Freeze-dried samples of Urokinase were rehydrated with 2 ml of 40 wt % sucrose. The solutions were then transferred to 20 ml sterilized glass vials for future preservation by drying. Before drying, the vials were covered with gray slotted rubber stoppers. The vials were dried inside a vacuum chamber. The vials were sitting on the surface of a stainless steel shelf inside the chamber. The shelf temperature was controlled by circulating ethylene glycol/water antifreeze at a controlled temperature inside the shelf. Before the vacuum was applied the shelf temperature was decreased to 5° C. Then the hydrostatic pressure inside the chamber was decreased to 0.5 Torr. Under such conditions, the suspension boiled for 30 min. […] Visually, under these experimental conditions, stable dry foams were formed inside the vials within 3 hours. After an additional 12 hours of drying at room temperature, the temperature was increased to 45° C. and maintained for an additional 24 hours. After that the chamber was filled with dry N2 gas, the rubber stoppers were pushed down and the vials were sealed with aluminum crimp seals.
The samples were assayed immediately after drying and after 30 days of storage at 40° C. After drying the Urokinase, activity was 93% of the initial activity. […]

Substance: Urokinase
- Urokinase activity, % of the initial activity (after 30 days of storage at 40° C.): 90%
- Urokinase activity, % of the initial activity (immediately after drying (40 wt % sucrose, maximum 45° C.)): 93%
